Source: US20060100138

How the values were obtained:
[1] = system: Synthetic human type I collagen
[2] = system: Synthetic human type III collagen
Sequence of Synthetic human type III collagen (chain, as listed by the source): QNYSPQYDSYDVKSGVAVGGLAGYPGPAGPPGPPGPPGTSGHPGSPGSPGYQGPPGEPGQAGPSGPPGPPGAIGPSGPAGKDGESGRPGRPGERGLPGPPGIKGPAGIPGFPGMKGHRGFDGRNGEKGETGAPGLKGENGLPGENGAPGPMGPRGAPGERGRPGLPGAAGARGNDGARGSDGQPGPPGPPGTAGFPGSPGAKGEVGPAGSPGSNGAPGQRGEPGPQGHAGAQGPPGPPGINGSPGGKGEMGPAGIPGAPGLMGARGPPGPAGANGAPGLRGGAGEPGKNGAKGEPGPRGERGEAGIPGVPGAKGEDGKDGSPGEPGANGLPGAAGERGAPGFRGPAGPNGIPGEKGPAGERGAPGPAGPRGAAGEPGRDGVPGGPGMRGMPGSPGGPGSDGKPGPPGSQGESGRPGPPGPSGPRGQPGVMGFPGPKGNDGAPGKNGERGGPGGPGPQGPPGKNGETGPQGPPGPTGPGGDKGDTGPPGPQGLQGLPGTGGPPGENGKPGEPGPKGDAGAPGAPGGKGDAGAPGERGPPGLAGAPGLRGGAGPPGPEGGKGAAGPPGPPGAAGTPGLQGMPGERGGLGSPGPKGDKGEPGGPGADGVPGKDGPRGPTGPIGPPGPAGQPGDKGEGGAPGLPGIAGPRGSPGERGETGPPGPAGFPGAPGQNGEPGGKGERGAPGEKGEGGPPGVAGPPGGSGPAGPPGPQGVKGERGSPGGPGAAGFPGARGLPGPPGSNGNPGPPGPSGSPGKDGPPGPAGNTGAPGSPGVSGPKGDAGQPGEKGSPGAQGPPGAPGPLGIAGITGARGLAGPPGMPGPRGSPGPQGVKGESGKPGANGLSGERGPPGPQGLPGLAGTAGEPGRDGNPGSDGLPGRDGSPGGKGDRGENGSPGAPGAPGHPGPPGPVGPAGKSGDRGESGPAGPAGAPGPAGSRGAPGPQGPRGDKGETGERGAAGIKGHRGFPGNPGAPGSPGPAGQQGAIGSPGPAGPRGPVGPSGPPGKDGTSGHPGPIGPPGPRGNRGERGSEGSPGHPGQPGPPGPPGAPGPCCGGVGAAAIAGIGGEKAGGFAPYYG

Sequence of MMP-8 (collagenase 2, neutrophil collagenase) (chain, as listed by the source): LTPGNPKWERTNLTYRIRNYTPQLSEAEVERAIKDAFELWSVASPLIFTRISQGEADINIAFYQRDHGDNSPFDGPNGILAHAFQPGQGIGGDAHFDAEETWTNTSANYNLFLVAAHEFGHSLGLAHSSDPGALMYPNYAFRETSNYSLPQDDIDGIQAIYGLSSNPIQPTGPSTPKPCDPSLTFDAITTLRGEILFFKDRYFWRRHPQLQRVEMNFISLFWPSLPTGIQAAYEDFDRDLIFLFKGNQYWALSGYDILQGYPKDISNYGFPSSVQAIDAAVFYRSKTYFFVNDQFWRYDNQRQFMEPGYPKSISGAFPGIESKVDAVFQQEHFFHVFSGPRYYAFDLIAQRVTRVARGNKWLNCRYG
Sequence of Synthetic human type I collagen (chain, as listed by the source, chain 1 of 2): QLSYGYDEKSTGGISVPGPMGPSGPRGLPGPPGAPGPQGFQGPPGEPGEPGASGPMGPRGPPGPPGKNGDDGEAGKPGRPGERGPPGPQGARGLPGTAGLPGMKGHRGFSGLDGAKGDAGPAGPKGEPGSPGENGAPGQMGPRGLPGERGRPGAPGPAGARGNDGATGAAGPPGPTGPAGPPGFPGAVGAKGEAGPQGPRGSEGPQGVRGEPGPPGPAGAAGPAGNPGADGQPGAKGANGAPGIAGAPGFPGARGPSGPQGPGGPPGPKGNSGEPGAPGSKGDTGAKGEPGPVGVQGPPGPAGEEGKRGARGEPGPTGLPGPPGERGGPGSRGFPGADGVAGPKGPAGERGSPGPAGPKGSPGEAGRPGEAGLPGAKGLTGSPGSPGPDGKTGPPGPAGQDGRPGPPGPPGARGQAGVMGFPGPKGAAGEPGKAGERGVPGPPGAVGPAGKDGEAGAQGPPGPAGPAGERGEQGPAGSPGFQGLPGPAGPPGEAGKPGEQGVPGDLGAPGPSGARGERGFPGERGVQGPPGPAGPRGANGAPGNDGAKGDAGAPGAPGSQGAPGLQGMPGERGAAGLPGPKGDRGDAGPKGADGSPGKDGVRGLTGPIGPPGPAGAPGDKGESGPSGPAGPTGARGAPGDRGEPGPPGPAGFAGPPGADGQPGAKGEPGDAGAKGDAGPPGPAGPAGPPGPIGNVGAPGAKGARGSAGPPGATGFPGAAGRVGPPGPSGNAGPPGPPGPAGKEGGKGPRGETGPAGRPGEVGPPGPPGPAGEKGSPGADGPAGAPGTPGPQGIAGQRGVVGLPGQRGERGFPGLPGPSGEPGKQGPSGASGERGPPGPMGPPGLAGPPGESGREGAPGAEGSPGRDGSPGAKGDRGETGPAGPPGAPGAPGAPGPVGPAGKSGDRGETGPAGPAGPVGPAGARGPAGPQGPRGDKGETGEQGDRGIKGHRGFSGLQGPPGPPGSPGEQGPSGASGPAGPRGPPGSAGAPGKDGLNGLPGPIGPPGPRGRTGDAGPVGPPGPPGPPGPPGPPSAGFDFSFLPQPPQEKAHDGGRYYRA
Sequence of Synthetic human type I collagen (chain, as listed by the source, chain 2 of 2): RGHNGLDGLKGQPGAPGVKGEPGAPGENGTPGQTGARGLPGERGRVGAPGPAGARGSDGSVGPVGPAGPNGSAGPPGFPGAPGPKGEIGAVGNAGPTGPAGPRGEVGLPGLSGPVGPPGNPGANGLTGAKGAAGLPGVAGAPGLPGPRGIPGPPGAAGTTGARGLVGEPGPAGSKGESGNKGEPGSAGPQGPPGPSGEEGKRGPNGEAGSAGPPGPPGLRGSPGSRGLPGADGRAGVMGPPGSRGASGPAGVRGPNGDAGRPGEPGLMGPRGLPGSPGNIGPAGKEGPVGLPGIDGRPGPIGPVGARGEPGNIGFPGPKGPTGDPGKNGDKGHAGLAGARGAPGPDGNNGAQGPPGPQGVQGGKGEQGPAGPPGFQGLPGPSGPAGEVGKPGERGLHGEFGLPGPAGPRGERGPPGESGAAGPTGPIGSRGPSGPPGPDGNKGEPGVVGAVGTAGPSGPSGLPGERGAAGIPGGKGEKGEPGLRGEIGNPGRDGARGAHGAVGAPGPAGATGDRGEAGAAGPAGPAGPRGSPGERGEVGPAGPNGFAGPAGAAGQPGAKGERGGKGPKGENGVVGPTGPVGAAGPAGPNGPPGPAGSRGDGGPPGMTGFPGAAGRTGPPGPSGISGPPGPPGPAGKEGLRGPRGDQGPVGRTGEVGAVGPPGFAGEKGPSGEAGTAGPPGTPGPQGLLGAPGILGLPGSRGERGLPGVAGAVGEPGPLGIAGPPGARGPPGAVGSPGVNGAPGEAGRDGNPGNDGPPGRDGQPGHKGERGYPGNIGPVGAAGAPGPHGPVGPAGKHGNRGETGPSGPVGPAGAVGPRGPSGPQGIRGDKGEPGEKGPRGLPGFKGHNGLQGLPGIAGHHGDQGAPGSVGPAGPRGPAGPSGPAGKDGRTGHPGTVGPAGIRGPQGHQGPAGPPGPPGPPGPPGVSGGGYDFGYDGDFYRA

“MMP-8 (collagenase 2, neutrophil collagenase)” was tested, and the “cleavage of collagen (SDS-PAGE after 1, 2 and 7 days at 37 C)” value [1] was “both synthetic human type I and type III collagen were cleaved by MMP-1 (FIG. 1A) and MMP-8 (FIG. 1B)”, the “cleavage of collagen (SDS-PAGE after 1, 2 and 7 days at 37 C)” value [2] was “both synthetic human type I and type III collagen were cleaved by MMP-1 (FIG. 1A) and MMP-8 (FIG. 1B)” and the “extent of degradation of collagen (SDS-PAGE)” value [2] was “Synthetic human type III collagen was degraded by MMP-1 to a greater extent than by MMP-8”.
